Data set [1] deals with full length human vWF binding to lyophilized platelets. The data set can be described thus: Full length human von Willebrand Factor platelet binding assay (FACS). In kind it is cell-based. Particulars: for Inhibition of full length hVWF binding in FACS assay, IC50 range: both bounds in nM. A digest of the protocol: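 Aptamer titrations (0.1–1000 nM) pre-incubated with 5 nM full-length human vWF, then added to lyophilized platelets plus botrocetin for 15 min at 37 °C in PBS/0.5% BSA. Bound vWF detected by anti-vWF then FITC secondary antibody via flow cytometry MFI; % inhibition versus no-aptamer binding fitted for IC50.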
Background: In flow cytometry, cells or beads pass a laser one at a time.

The subject of data set [2] is rabbit vWF domain A1 binding to lyophilized platelets. Kind of data set: Rabbit von Willebrand Factor domain A1 platelet binding assay (FACS). The format is cell-based. A digest of the protocol:
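Aptamers (0.1–1000 nM) preincubated with 4 nM His-tagged rabbit vWF A1 in PBS/0.5% BSA, then lyophilized human platelets plus botrocetin added, 15 min at 37 °C. Bound A1 detected by anti-His-biotin and PE secondary via flow cytometry (median fluorescence, background-subtracted); IC50 fitted from percent inhibition.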

Data set [3] relates to full length human vWF. Kind of data set: 3-point dot blot screen, full length human vWF. The format is binding. The conditions noted are these: 20 nM full length human vWF, ratio of fraction of aptamer bound with target protein to fraction bound without protein. A digest of the protocol: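 Unique aptamer clones tested twice by nitrocellulose dot blot with no protein, 20 nM full-length human vWF or 20 nM rabbit vWF A1 domain. Value is fraction of aptamer bound with target divided by fraction bound without protein.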

Setting [4] is: read-out: FACS IC50 vs human full length vWF.
Where [5] appears, read: read-out: FACS IC50 vs rabbit A1 domain.
Setting [6] is: 5 nM full length human vWF, lyophilized platelets, botrocetin.
[7] abbreviates: 4 nM rabbit A1 vWF, lyophilized platelets, botrocetin, both bounds in nM.
Setting [8] is: 5 nM full length human vWF, lyophilized platelets, botrocetin, read-out: Inhibition of full length hVWF binding in FACS assay, Average IC50.
Setting [9] is: 5 nM full length human vWF, lyophilized platelets, botrocetin, units in the cell: lower bound pM, upper bound nM, read-out: Inhibition of full length hVWF binding in FACS assay, IC50 range.
The mark [10] stands for this setting: 4 nM rabbit A1 vWF, lyophilized platelets, botrocetin, read-out: Inhibition of rabbit VWF A1 domain binding in FACS assay, Average IC50.
Setting [11] is: 4 nM rabbit A1 vWF, lyophilized platelets, botrocetin, both bounds in nM, read-out: Inhibition of rabbit VWF A1 domain binding in FACS assay, IC50 range.

From US7998940B2, “Aptamers to von Willebrand factor and their use as thrombotic disease therapeutics” (Archemix Corp., priority 2004, dated 2011) come the findings set out here.

Like-named read-outs stand apart in the source and are kept apart here. Oligonucleotides are written 5' to 3', each unit as a sugar letter and its base; * is a phosphorothioate linkage, no mark a phosphodiester; rarer units and linkages stand in square brackets, end groups in braces. Plain capitals give the bases only. [invdT] = inverted (3'-3') thymidine; d = 2'-deoxy (DNA); m = 2'-O-methyl; r = 2'-OH (RNA); f = 2'-fluoro

rabbit vWF domain A1 binding to lyophilized platelets, sequence (as listed by the source): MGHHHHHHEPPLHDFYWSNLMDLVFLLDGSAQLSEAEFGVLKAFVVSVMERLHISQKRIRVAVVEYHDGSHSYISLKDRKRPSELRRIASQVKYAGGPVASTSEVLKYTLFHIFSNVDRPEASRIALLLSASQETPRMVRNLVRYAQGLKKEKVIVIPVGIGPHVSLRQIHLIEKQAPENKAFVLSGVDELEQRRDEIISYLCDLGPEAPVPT

By IC50 is commonly meant the concentration that inhibits the measured activity by half. Take “dGdGdCdGTdGdCdAdGTdGdCdCTTdCdGdGdCdCdGTdGdCdGdGTdGdCdCTdCdCdGTdCdAdCdGdCdC-3T (DNA GGCGTGCAGTGCCTTCGGCCGTGCGGTGCCTCCGTCACGCC; DNA, [invdT] at 3' end, backbone and methylation of C not given here) [ARC1172, ARC1115 with 3'-inverted dT]”: the IC50 came out at 2000 pM in data set [1] (setting [4]) and 2 nM in data set [2] (setting [5]).

Regarding “mGmCmGmUdGdCdAmGmUmGmCmCmUmUmCmGmGmCdCmG-s-TmGdCdGdGTmGmCdCmUdCdCmGmUdCmAmCmGmC-3T (GCGUGCAGUGCCUUCGGCCGTGCGGTGCCUCCGUCACGC; sugars from the 5' end mmmmdddmmmmmmmmmmmdmdmddddmmdmddmmdmmmm, [invdT] at 3' end, backbone not given here) [ARC1368]”, the IC50 came to 2000 pM in data set [1] (setting [4]) and 4 nM in data set [2] (setting [5]).

B1: AMX206.D8: rRdY aptamer clone (nucleic acid)
chain: rGrGrArGdCrGdCrAdCdTdCrArGdCdCrAdCrGrAdCrGrGdTrGrAdTrGrGrAdTdTrArGdCrGdCrGrGdTrGrGrAdTdCdTdTrArAdCrGdTrGdCrGrArGdTdTdTdCrGrAdCdCdTdCdTdCdTrGdCdTrArGdC
With B1, the “Inhibition of full length hVWF binding in FACS assay, IC50 range” value in data set [1] (setting [6]) is given as “no activity”. Further, the “Inhibition of rabbit VWF A1 domain binding in FACS assay, IC50 range” value in data set [2] (setting [7]) is listed as “no activity”.

B2: AMX205.F7: rRdY aptamer clone (nucleic acid)
chain: rGrGrArGdCrGdCrAdCdTdCrArGdCdCrAdCrAdCrGrAdCrAdTdTrGrGdCrGrGrGdTdTrGdTrArAdTdTrAdCdCrAdCrGdCrAdTrGrGdCdTrGdTdTdTrGdTdTdTdCrGrAdCdCdTdCdTdCdTrGdCdTrArGdC
In the case of B2, the figures for the IC50 in data set [1] (setting [8]), in data set [1] (setting [9]) and in data set [2] (setting [10]) were 818 pM, 321 to 1600 pM and 4.7 nM, respectively.

B3: AMX205.H10: rRdY aptamer clone (nucleic acid)
chain: rGrGrArGdCrGdCrAdCdTdCrArGdCdCrAdCdTrGdTdTrGdCdCrGrAdCrGrGdTrGrAdTrGdTrAdTdTrArAdCrGdCrGrGrGdCrArAdCrGdTdTrGrGdTrGdTdTdTdCrGrAdCdCdTdCdTdCdTrGdCdTrArGdC
Turning to B3, the “Inhibition of full length hVWF binding in FACS assay, IC50 range” value in data set [1] (setting [6]) is given as “no activity”. For the same molecule, the “Inhibition of rabbit VWF A1 domain binding in FACS assay, IC50 range” value in data set [2] (setting [7]) was “no activity”.

B4: AMX237.G6: DNA SELEX 2 aptamer clone (nucleic acid)
DNA: CTACCTACGATCTGACTAGCGTGCAGTGCCTATTCCAGGCCGTGCGGTGCCTCCGTCACGCTTACTCTCATGTAGTTCC
modifications: DNA, backbone and methylation of C not given here
notes: DNA SELEX 2 aptamer clone
As for B4, in data set [3], the “Screen- Human/No Protein” value is listed as 3.80. In addition, the half-maximal inhibitory concentration (IC50) in data set [1] (setting [8]) turned out to be 1900 pM.

B5: AMX201.C8: rRfY aptamer clone (nucleic acid)
chain: rGrGrArGfCrGfCrAfCfUfCrArGfCfCrAfCfCfCfUfCrGfCrArArGfCrAfUfUfUfUrArArGrArAfUrGrAfCfUfUrGfUrGfCfCrGfCfUrGrGfCfUrGfUfUfUfUfCrGrAfCfCfUfCfUfCfUrGfCfUrArGfC
As for B5, the IC50 in data set [1] (setting [8]) was 528 pM; in data set [1] (setting [9]) it was 24 to 1800 pM; in data set [2] (setting [10]) it was 0.682 nM.

B6: AMX237.A2: DNA SELEX 2 aptamer clone (nucleic acid)
chain: CTACCTACGATCTGACTAGCTCCAGTGTTTCATCCAATAACCGTGCGGTGCCTCCGTGAGCTTACTCTCATGTAGTTCC
modifications: DNA, backbone and methylation of C not given here
notes: DNA SELEX 2 aptamer clone
With B6, the “Screen- Human/No Protein” value in data set [3] is recorded as 2.60. Moreover, the values for the concentration for half-maximal inhibition (IC50) in data set [1] (setting [8]), in data set [1] (setting [9]) and in data set [2] (setting [11]) were 3500 pM, 815 to 7300 pM and 7 nM, respectively.

B7: AMX238.G5: DNA SELEX 2 aptamer clone (nucleic acid)
DNA: CTACCTACGATCTGACTAGCTCCAGTGTTTTATTCAATAACCGTGCGGTGCCTCCGTGAGCTTACTCTCATGTAGTTCC
modifications: DNA, backbone and methylation of C not given here
notes: DNA SELEX 2 aptamer clone
For B7, in data set [3], the “Screen- Human/No Protein” value was 3.06. Further, the 50% inhibitory concentration (IC50) in data set [1] (setting [8]) is 1100 pM; in data set [1] (setting [9]), 273 to 2600 pM; in data set [2] (setting [11]) it was 5.5 nM.

B8: AMX237.B11: DNA SELEX 2 aptamer clone (nucleic acid)
DNA: CTACCTACGATCTGACTAGCTCCAGTGTTTTATCTAATAACCGTGCGGTGCCTCCGTGAGCTTACTCTCATGTAGTTCC
modifications: DNA, backbone and methylation of C not given here
notes: DNA SELEX 2 aptamer clone
For B8, in data set [3], the “Screen- Human/No Protein” value is recorded as 2.87. The IC50 in data set [1] (setting [8]) is 2500 pM; in data set [1] (setting [9]), 151 to 4800 pM; in data set [2] (setting [11]), 5.7 nM.

B9: AMX238.D12: DNA SELEX 2 aptamer clone (nucleic acid)
DNA: CTACCTACGATCTGACTAGCTCCAGTGTTTCATTCAATAACCGTGCGGTGCCTCCGTGAGCTTACTCTCATGTAGTTCC
modifications: DNA, backbone and methylation of C not given here
notes: DNA SELEX 2 aptamer clone
As for B9, the “Screen- Human/No Protein” value in data set [3] is on record as 2.40. The 50% inhibitory concentration (IC50) in data set [1] (setting [8]) was 2000 pM; in data set [1] (setting [9]), 684 to 3400 pM; in data set [2] (setting [11]), 7.2 nM.

B10: AMX237.A11: DNA SELEX 2 aptamer clone (nucleic acid)
chain: CTACCTACGATCTGACTAGCTCCAGTGTTTTATCCAATAACCGTGCGGTGCCTCCGTGAGCTTACTCTCATGTAGTTCC
modifications: DNA, backbone and methylation of C not given here
notes: DNA SELEX 2 aptamer clone
On to B10, for which the “Screen- Human/No Protein” value in data set [3] is 2.66. For the same molecule, the IC50 in data set [1] (setting [8]) was 2200 pM; in data set [1] (setting [9]) it was 466 to 5600 pM; in data set [2] (setting [11]), 4.7 nM.

B11: AMX203.G9: rRdY aptamer clone (nucleic acid)
chain: rGrGrArGdCrGdCrAdCdTdCrArGdCdCrAdCrGrGrGrGdTrGrGrGdTrArGrAdCrGrGdCrGrGrGdTrAdTrGdTrGrGdCdTrGrGdTrGdTdCrGrArArGrGrGdTdTdTdCrGrAdCdCdTdCdTdCdTrGdCdTrArGdC
With B11, the IC50 in data set [1] (setting [8]) was 4700 pM; in data set [2] (setting [10]), 0.592 nM; in data set [2] (4 nM rabbit A1 vWF, lyophilized platelets, botrocetin, units in the cell: lower bound pM, upper bound nM, read-out: Inhibition of rabbit VWF A1 domain binding in FACS assay, IC50 range), 0.152 to 1.6 nM.
